Assay results reported in publication PMC8300624, “Prdx1 Interacts with ASK1 upon Exposure to H2O2 and Independently of a Scaffolding Protein” (Antioxidants, 2021).

Key:
[1] = target: T1, recombinant Prdx1 C173A (resolving cysteine mutant) (human, UniProt Q06830 1-199, C173A); experiment: BLI; Octet Red 96; His-tagged MBP-ASK1-TBD loaded on Ni2+-NTA sensors at 0.45 µM; Prdx as analyte at 1 µM or at different concentrations for kon and koff; 10 µM H2O2 (oxidizing condition); 25 mM Tris/HCl pH 7.4, 25 mM NaCl, 1% BSA, 0.05% Tween 20, 0.01 mM maltose; His-tagged MBP as reference; the paper takes the bond to be a mixed disulfide; conditions: both partners purified
T1 construct: peroxiredoxin-1 (Prdx1) with C173A; purified by the same protocol as Prdx1 WT; source: E. coli BL21, purified (Phenyl Sepharose, SP Sepharose, Superdex 75)
T1 sequence (looked up): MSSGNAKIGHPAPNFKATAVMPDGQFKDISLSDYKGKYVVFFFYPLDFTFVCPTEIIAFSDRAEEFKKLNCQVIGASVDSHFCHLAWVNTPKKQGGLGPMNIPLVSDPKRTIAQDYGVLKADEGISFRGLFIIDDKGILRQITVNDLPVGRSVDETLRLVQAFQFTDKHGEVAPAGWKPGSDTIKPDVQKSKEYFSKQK

[2] = target: T2, recombinant wild-type peroxiredoxin-1 (Prdx1 WT) (human, UniProt Q06830 1-199); experiment: as above; conditions: both partners purified
T2 construct: peroxiredoxin-1 (Prdx1); In the BLI the protein was pre-reduced with DTT, desalted and then met the sensor in 10 µM H2O2 or 10 µM DTT; also called pET17-Prdx1; source: E. coli BL21, purified (Phenyl Sepharose, SP Sepharose, Superdex 75)
T2 sequence (looked up): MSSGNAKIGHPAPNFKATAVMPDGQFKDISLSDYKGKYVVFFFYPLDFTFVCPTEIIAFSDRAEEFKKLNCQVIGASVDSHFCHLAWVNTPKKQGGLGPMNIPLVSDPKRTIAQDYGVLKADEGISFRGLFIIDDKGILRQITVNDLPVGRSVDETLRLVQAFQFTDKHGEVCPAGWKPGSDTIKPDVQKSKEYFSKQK

- koff [1]: 0.00228 s⁻¹
- kon [1]: 7200 M⁻¹ s⁻¹
- koff [2]: 0.0002 s⁻¹
- kon [2]: 32700 M⁻¹ s⁻¹
B1: 6xHis-MBP-ASK1-TBD (thioredoxin-binding domain of ASK1 with N-terminal His tag and maltose binding protein) (domain or fragment)
chain: SRRTTVAYVINEASQGQLVVAESEALQSLREACETVGATLETLHFGKLDFGETTVLDRFYNADIAVVEMSDAFRQPSLFYHLGVRESFSMANNIILYCDTNSDSLQSLKEIICQKNTMCTGNYTFVPYMITPHNKVYCCDSSFMKGLTELMQPNFELLLGPICLPLVDRFIQLLKVAQASSSQYFRESILNDIRKARNLYTGKELAAELARIRQR
modifications: Limits are not given; 88-302 is the usual recombinant ASK1-TBD construct and spans the listed TBD cysteines 120-250. His6-MBP-TEV carrier omitted. Assayed with 10 uM H2O2 (oxidizing) or 10 uM DTT …
